In publication PMC10618235:
Like-named read-outs stand apart in the source and are kept apart here.

Experiments:
[1] = target: FBXL6 (F-Box and Leucine Rich Repeat Protein 6) (UniProt Q8N531); assay: co-IP with anti-Flag IgG, blot; conditions: reference: wild-type TKT; sites T287

For TKT (transketolase): T287A, the enzymatic_activity (phosphorylation at T287) was “decreases”, the localisation_or_trafficking (phosphorylation at T287) was “changes” and the other (phosphorylation at T287) was “decreases”.
With “TKT (transketolase) (from UniProt P29401) TKT T287A” the “binding against the reference” value [1] was “lost”.
With TKT (transketolase): K319A the enzymatic_activity (ubiquitination at K319) was “abolishes”, the localisation_or_trafficking (ubiquitination at K319) was “changes” and the other (ubiquitination at K319) was “decreases”.
In the case of TKT (transketolase): K16A, the enzymatic_activity (ubiquitination at K16) is reported as “abolishes”, the localisation_or_trafficking (ubiquitination at K16) is reported as “changes” and the other (ubiquitination at K16) is reported as “decreases”.
For “TKT (transketolase): VRK2 inhibition (IC261, 5 μM) or siVRK2”, the other (phosphorylation at T287) was “decreases”.
